Reference: US20180346912

What was measured:
[1] = test system: T1, VEGF165 (human), P15692-4; test: competition; details: n = Ds unnatural base in DNA, phosphate buffer pH 7.4, 0.005% NP-40, 37 C
T1 sequence: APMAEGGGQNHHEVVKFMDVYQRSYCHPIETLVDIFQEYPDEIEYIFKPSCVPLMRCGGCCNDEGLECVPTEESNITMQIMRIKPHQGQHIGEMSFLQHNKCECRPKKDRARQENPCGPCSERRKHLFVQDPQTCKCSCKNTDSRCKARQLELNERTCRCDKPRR

[2] = molecular target: T2, IFN-γ (human) (UniProt P01579); test: competition; details: PBS, 0.005% NP-40, 37 C
T2 sequence: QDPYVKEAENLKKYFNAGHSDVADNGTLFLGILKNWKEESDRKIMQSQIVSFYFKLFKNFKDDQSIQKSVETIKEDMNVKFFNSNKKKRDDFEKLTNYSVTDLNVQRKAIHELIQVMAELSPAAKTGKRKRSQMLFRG

[3] = molecular target: T2, IFN-γ (human); test: SPR; details: biotinylated DNA on SA chip, 1x PBS + 50 mM NaCl, 0.05% NP-40, 25 C
[4] = EMSA competition vs 32P-Aptamer 47 (=1.00)
[5] = n = Ds unnatural base in DNA, EMSA competition vs 32P-Aptamer 49 (=1.00)

Question: With “GCGGTAAACTGCGTCCGAAGGGGCNTGCAGTGANCCCGAATGGGTCCGCCGCGAAGCG [Aptamer 58mh (VEGF)]” as the sequence, how does the binding signal [1, 4] read?
Answer: 1.58

Question: For “TCCACTCGGGTCCGCGAAGCGGTAGGTNTGGGCTAGGCNGCTAGTGGACGCGAAGCG [Aptamer 57mh (IFN-γ)]”, which binding signal [2, 5] is on record?
Answer: 1.4

Question: Which binding signal ([2]; n = Ds, 7-(2-thienyl)-3H-imidazo[4,5-b]pyridin-3-yl unnatural base in DNA, reference, EMSA competition) does the source give for “TCCACTCGGGTCATTTANTAATGTAGGTNTGGGCTAGGCNGCTAGTGGA [Aptamer 49 (IFN-γ)]” here?
Answer: 1

Question: And the Kd ([3]; n = Ds, 7-(2-thienyl)-3H-imidazo[4,5-b]pyridin-3-yl unnatural base in DNA)?
Answer: 0.046 nM

Question: How did the binding signal [1, 4] turn out when “GCGGTAAGCCGCGTCCGAAGGGGCNTGCGGCGANCCCGAATGGGTCCGCCGCGAAGCG [Aptamer 58GCmh (VEGF)]” was run?
Answer: 1.59

Question: For “GCGGTAAACTGCGTCCGAAGGGGCNTGCAGTGANCCCGAATGGGTCCGC [Aptamer 49 (VEGF)]”, which binding signal [1, 4] is on record?
Answer: 1.53

Question: For “CGGTAAACTGCGTCCGAAGGGGCNTGCAGTGANCCCGAATGGGTCCG [Aptamer 47 (VEGF)]”, which binding signal ([1]; reference) is on record?
Answer: 1

Question: With “CCCGCCCGGGTCCGCGAAGCGGTAGGTNTGGGCTAGGCNGCTGGCGGGCGCGAAGCG [Aptamer 57GCmh (IFN-γ)]” as the sequence, how does the binding signal [2, 5] read?
Answer: 1.53

Question: And the Kd ([3]; n = Ds unnatural base in DNA)?
Answer: 0.033 nM

Question: With “GCGGTAAGCCGCGTCCGAAGGGGCNTGCGGCGANCCCGAATGGGTCCGC [Aptamer 49GC (VEGF)]” as the sequence, how does the binding signal [1, 4] read?
Answer: 1.5

Question: What does the source list for “TCCACTCGGGTCATTTANTAATGTAGGTNTGGGCTAGGCNGCTAGTGGACGCGAAGCG [Aptamer 58 (IFN-γ)]”?
Answer: binding signal [2, 5]: 1.29; Kd ([3]; n = Ds unnatural base in DNA): 0.038 nM

Question: For “CCCGCCCGGGTCGCCTANTGGCGTAGGTNTGGGCTAGGCNGCTGGCGGGCGCGAAGCG [Aptamer 58GC (IFN-γ)]”, which binding signal [2, 5] is on record?
Answer: 0.24
